The values below come from US20260234655A1, “Nuclear Targeted DNA Delivery and Compositions for Use in Practicing the Same” (Seawolf Therapeutics, Inc., priority 2022, published 2026).

The subject of one series is mouse liver. Description: Pooled DTS pDNA-LNP i.v. in mice; mRNA abundance in liver by RNA-seq. The class given is in vivo. As to conditions: 1 d post-dose, pDNA-LNP 0.66 mg/kg i.v. The protocol: LNP formulation. LNPs encapsulating nucleic acid payloads were prepared by mixing an organic solution of lipids with an aqueous solution of nucleic acid (e.g., DNA only, mRNA only, or DNA/mRNA mixtures) as described in Prud′homme et al. (J Pharm Sci 2018). Briefly, the lipidic excipients mixture (ionizable lipid, helper lipid, cholesterol, PEG-lipid and potentially other targeting moieties) is dissolved in an organic solvent. An aqueous solution of the nucleic acid is prepared in a low pH buffer of range pH 3.0-4.0. The lipid mixture is then mixed with the aqueous nucleic acid solution at a flow ratio of 1:3 (V/V) using a commercially available mixer device. […] Particle size is determined by dynamic light scattering (Horiba nanoPartica SZ-100). Encapsulation efficiency is calculated by using Quant-it RiboGreen assay kit.
Quantification of mRNA abundance from pooled DTS screens. […] The PCR amplified cDNA was then library prepped (NEBNext library prep for Illumina) and sequenced on an Illumina Miseq (2×150 bp reads). Counts for each UMI were translated into the corresponding DTS using the UMI/Barcode registry and changes in abundance of each DTS were statistically analyzed using a custom R script. The log 2 fold change is calculated by comparing the RNA level in the pool vs. its expected abundance, which is derived from the abundance in the corresponding input DNA pool. […]

The subject of series [1] is primary human hepatocytes. Description: pDNAs containing DTSs transfected into primary human hepatocytes; GFP by quantitative live-cell imaging and FACS. The class given is cell-based. As to conditions: 24 h post-transfection. An excerpt: DNA construct design. Each DTS was constructed in pentameric repeat using a 15 bp spacer between each TFBS. The DTS was appended just 5′ to the promoter, effectively in a putative enhancer region. Various promoters were employed in these constructs, including CBh (a variant of the CAG promoter) and TTR. Several reporter genes were employed in these constructs, including enhanced Green Fluorescent Protein (eGFP). The polyadenylation (polyA) signal is a BGH-PolyA sequence. For pooled screening, unique molecular identifiers (UMIs; also known as barcodes) were used to distinguish between DNA constructs in a pool, and the UMIs were appended to the 3′UTR immediately downstream of the stop codon of eGFP, just preceding the BGH-PolyA sequence.
Plasmid DNAs (pDNAs) containing various DTSs were transfected into primary human hepatocytes. GFP expression was quantified 24 h post-transfection by measuring GFP intensity using quantitative live-cell imaging, then cells were harvested and the % of GFP-positive cells was measured by FACS. A strong correlation between total GFP intensity and % GFP-positive cells was observed (FIG. 3A). The DTSs identified as hits (open circles) increased both the GFP intensity and the % GFP-positive cells compared to the Spacer negative control (FIG. 3A). […]

B1: NFKB: benchmark DTS with NF-κB binding sites in pentameric repeat (SEQ ID NO: 140) (nucleic acid)
DNA: GGGACTTTCCAGATTACTACTGATAGGGACTTTCCAGATTACTACTGATAGGGACTTTCCAGATTACTACTGATAGGGACTTTCCAGATTACTACTGATAGGGACTTTCC
modifications: DNA nuclear targeting sequence within DNA cargo construct, further chemistry not given here
Regarding B1, in the series with mouse liver, the “mRNA abundance in mouse liver compared to Spacer negative control” value is “largest and most statistically significant increase”. Moreover, in series [1], the “gene expression compared to the pDNA with no DTS” value is recorded as “robust increases” and the “increase in GFP intensity compared to the pDNA with no DTS” value is recorded as around 10 fold.
